Experimental data: PMC6118821

Molecular target: Nucleosome with symmetrical linkers of 14 base pairs (nucleosome of the 2Chd1:1Nucleosome complex) (Xenopus laevis)
Assay: cryo-EM structure; 2:1 complex of ScChd1(1-1305Δ57–88) and a nucleosome with symmetrical 14 bp linkers, ADP-BeFx; envelope at 10-11 Å, two Chd1 and a nucleosome rigid-body docked

stoichiometry N: 2
Substance: ScChd1(1-1305Δ57–88) (from UniProt P32657 1-1305) (enzyme)
